Test results published in PMC9352680, “A comprehensive thermodynamic model for RNA binding by the Saccharomyces cerevisiae Pumilio protein PUF4”.
Residue numbers refer to the chain shown, from its start. Names and notes keep the numbering of the source.

T1: PUF4 RNA-binding domain (Saccharomyces cerevisiae, UniProt P25339 537-888)
T1 sequence: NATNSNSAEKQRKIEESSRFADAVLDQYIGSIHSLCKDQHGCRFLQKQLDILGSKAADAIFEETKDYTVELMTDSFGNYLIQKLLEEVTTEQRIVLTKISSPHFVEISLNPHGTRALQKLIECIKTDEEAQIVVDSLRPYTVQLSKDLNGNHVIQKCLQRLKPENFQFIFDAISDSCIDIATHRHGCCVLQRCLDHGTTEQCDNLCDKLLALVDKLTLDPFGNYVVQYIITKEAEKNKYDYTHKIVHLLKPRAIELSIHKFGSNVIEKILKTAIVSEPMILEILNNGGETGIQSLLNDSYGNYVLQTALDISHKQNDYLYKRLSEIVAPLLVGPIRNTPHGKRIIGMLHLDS

B1: Id_i_S4_P3E.2_K3.1_C3.2_[C-2T]_[T-1G]_H3.1_A3.1_F3.1_T3.2 (ssRNA)
RNA: UUUGACAACUGAUCGUUCUUUCUUGUGUAUAUAUAUUCUUUCUCGAUCAGUUGUCUUU
B2: Id_i_S4_P3E.3_K3.2_C3.2_[C-2T]_[T-1C]_H3.2_A3.1_F3.1_T3.2 (ssRNA)
RNA: B1 RNA with G25C, G27A
B3: Id_ii_S4_P3E.4_K3.3_C3.2_[C-2G]_[T-1C]_H3.3_A3.1_F3.1_T3.2 (ssRNA)
RNA: B1 RNA with U24G, G25C, U26A, G27C, U28A, A29C
B4: Id_i_S4_P3E.4_K3.3_C3.2_[C-2T]_[T-1C]_H3.3_A3.1_F3.1_T3.2 (ssRNA)
RNA: B1 RNA with G25C, U26A, G27C, U28A, A29C
B5: Id_i_S4_P3E.3_K3.2_C3.2_[C-2T]_[T-1G]_H3.2_A3.1_F3.1_T3.2 (ssRNA)
RNA: B1 RNA with G27A
B6: Id_i_S4_P3E.2_K3.1_C3.2_[C-2T]_[T-1A]_H3.1_A3.1_F3.1_T3.2 (ssRNA)
RNA: B1 RNA with G25A
B7: Id_i_S4_P3E.4_K3.3_C3.2_[C-2A]_[T-1C]_H3.3_A3.1_F3.1_T3.2 (ssRNA)
RNA: B1 RNA with U24A, G25C, U26A, G27C, U28A, A29C
B8: Id_i_S4_P3E.2_K3.1_C3.2_[C-2T]_[T-1C]_H3.1_A3.1_F3.1_T3.2 (ssRNA)
RNA: B1 RNA with G25C

Biological target: T1, PUF4 RNA-binding domain
Assay: Mg; RNA-MaP; 20 mM Na-HEPES pH 7.4, 30 mM KOAc, 0.75 mM MgCl2, 0.1% Tween-20, 5% glycerol, 0.1 mg/mL BSA, 2 mM DTT; 25 C; 0.0125-409.6 nM protein
Conditions: tags: N-His6-TEV cleaved; C-SNAP kept, Cy3B-labelled; label: tethered on chip by stalled RNA polymerase

| Binder | Kd |
| --- | --- |
| UCUCUUUGUAUGUUAUCUCUU (ssRNA) [Ic_S1_P4E.1_K4.1_C4.1_H4.1_A4.1_[A6G]_F4.1_T4.1] | 4.82 nM |
| B1 | 1.47 nM |
| B2 | 68.1 nM |
| B3 | 30.3 nM |
| B4 | 202 nM |
| B5 | 4.75 nM |
| B6 | 4.77 nM |
| B7 | 295 nM |
| B8 | 0.82 nM |
| UCUCUUGGUGUAUAUAAUUCUCUU (ssRNA) [Id_ii_S1_P3E.2_K3.1_C3.2_[C-2G]_[T-1G]_H3.1_A3.1_F3.1_T3.2_[T9A]_[A10T]] | 16.3 nM |
| UCUCUUGUUGUAUAUAAAUCUCUU (ssRNA) [Id_ii_S1_P3E.2_K3.1_C3.2_[C-2G]_H3.1_A3.1_F3.1_T3.2_[T9A]] | 8.84 nM |
| ACAAACCGGUAUAUAUAUAACAAAC (ssRNA) [Id_i_S3_P3E.6_K3.2_C3.3_[T-3C]_[C-2G]_[T-1G]_H3.2_A3.1_F3.1_T3.2] | 1060 nM |
| UCUCUUGCUGUAUAUAUCUCUCUU (ssRNA) [Id_ii_S1_P3E.2_K3.1_C3.2_[C-2G]_[T-1C]_H3.1_A3.1_F3.1_T3.2_[A10C]] | 12.6 nM |
| UCUCUUGGUGUAUAUAUGUCUCUU (ssRNA) [Id_ii_S1_P3E.2_K3.1_C3.2_[C-2G]_[T-1G]_H3.1_A3.1_F3.1_T3.2_[A10G]] | 16.4 nM |
| UCUCUUGUUGUAUAUAUCUCUCUU (ssRNA) [Id_ii_S1_P3E.2_K3.1_C3.2_[C-2G]_H3.1_A3.1_F3.1_T3.2_[A10C]] | 8.36 nM |
| UCUCUUUGUGUAUAUACCUCUCUU (ssRNA) [Id_ii_S1_P3E.2_K3.1_C3.2_[C-2T]_[T-1G]_H3.1_A3.1_F3.1_T3.2_[T9C]_[A10C]] | 23.4 nM |
| UCUCUUGCUGUAUAUAUUUCUCUU (ssRNA) [Id_ii_S1_P3E.2_K3.1_C3.2_[C-2G]_[T-1C]_H3.1_A3.1_F3.1_T3.2_[A10T]] | 12.9 nM |
| UCUCUUGGUGUAUAUAUUUCUCUU (ssRNA) [Id_ii_S1_P3E.2_K3.1_C3.2_[C-2G]_[T-1G]_H3.1_A3.1_F3.1_T3.2_[A10T]] | 15.2 nM |
| UCUCUUUGUGUAUAUAGUUCUCUU (ssRNA) [Id_ii_S1_P3E.2_K3.1_C3.2_[C-2T]_[T-1G]_H3.1_A3.1_F3.1_T3.2_[T9G]_[A10T]] | 6.29 nM |
| UCUCUUGUUGUAUAUAUAUCUCUU (ssRNA) [Id_ii_S1_P3E.2_K3.1_C3.2_[C-2G]_H3.1_A3.1_F3.1_T3.2] | 5.16 nM |
| UCUCUUGCUGUAUAUAAUUCUCUU (ssRNA) [Id_ii_S1_P3E.2_K3.1_C3.2_[C-2G]_[T-1C]_H3.1_A3.1_F3.1_T3.2_[T9A]_[A10T]] | 12.4 nM |
| ACAAACAAGUAUAUAUAUAACAAAC (ssRNA) [Id_i_S3_P3E.6_K3.2_C3.3_[T-3A]_[C-2A]_[T-1G]_H3.2_A3.1_F3.1_T3.2] | 316 nM |
| UCUCUUAGUUUAUUAUCUCUU (ssRNA) [Ib_S1_P4E.1_K4.1_C4.1_H4.1_[T1A]_[A4T]_A4.1_F4.1_T4.1] | > 2300 nM |
| UCUCUUGUUGUAUAUACCUCUCUU (ssRNA) [Id_ii_S1_P3E.2_K3.1_C3.2_[C-2G]_H3.1_A3.1_F3.1_T3.2_[T9C]_[A10C]] | 20.1 nM |
| UCUCUUGUUGUAUAUAGUUCUCUU (ssRNA) [Id_ii_S1_P3E.2_K3.1_C3.2_[C-2G]_H3.1_A3.1_F3.1_T3.2_[T9G]_[A10T]] | 4.57 nM |
| UCUCUUAAUAUAUUAUCUCUU (ssRNA) [Ib_S1_P4E.1_K4.1_C4.1_H4.1_[T1A]_[G2A]_A4.1_F4.1_T4.1] | 564 nM |
| UCUCUUGCUGUAUAUACCUCUCUU (ssRNA) [Id_ii_S1_P3E.2_K3.1_C3.2_[C-2G]_[T-1C]_H3.1_A3.1_F3.1_T3.2_[T9C]_[A10C]] | 17.3 nM |
| ACAAACCAAACACUAUAUAACAAAC (ssRNA) [Id_i_S3_P3E.7_K3.3_C3.3_[T-3C]_[C-2A]_[T-1A]_H3.3_A3.1_F3.1_T3.2] | > 2300 nM |
| UCUCUUGGUGUAUAUAGUUCUCUU (ssRNA) [Id_ii_S1_P3E.2_K3.1_C3.2_[C-2G]_[T-1G]_H3.1_A3.1_F3.1_T3.2_[T9G]_[A10T]] | 6.96 nM |
| ACAAACAUAACACUAUAUAACAAAC (ssRNA) [Id_i_S3_P3E.7_K3.3_C3.3_[T-3A]_[C-2T]_[T-1A]_H3.3_A3.1_F3.1_T3.2] | > 2300 nM |
